Read-outs that look alike come from different tables or passages of the source.
How the values were obtained:
cynomolgus CCR8 [1] = molecular target: T1, cynomolgus CCR8 (cynomolgus, UniProt G7NYJ2 1-355); assay: FACS on HEK293-cynomolgus CCR8 cells
T1 construct: whole, on cells
Description: (§1) A total of 5×10⁴ cells for each well were seeded in 96-well plates and washed with FACS buffer (DPBD containing 1.5% FBS) for once. Antibodies were prepared with 3-fold serial dilution ranging from 100 nM to 0.0017 nM in FACS buffer. Cells were incubated with 50 μL of diluted antibodies at 4° C. for 1 hour. […] After primary antibody incubation, cells were washed for 3 times by FACS buffer. Then, cells were stained by Alexa Flu647 labeled anti-human IgG secondary antibody (Jackson ImmunoResearch, #109606170) or Alexa Flu647 labeled anti-mouse IgG secondary antibody (Jackson ImmunoResearch, #115605072) at 1:600 dilution in FACS buffer for 0.5 hour at 4° C. After washed for 3 times, Flow cytometry was performed to measure the binding.

human CCR8 [2] = molecular target: T2, human CCR8 (human, UniProt P51685 1-355); assay: FACS on HEK293-human CCR8 cells
T2 construct: whole, on cells; also called hCCR8
Description: as §1

human CCR8 [3] = molecular target: T2, human CCR8; assay: FACS, competition with AF647-human CCL1 on CHO-K1-human CCR8 cells
human CCR8 [4] = molecular target: T2, human CCR8; assay: FACS, competition with CCL1 on CHO-K1-human CCR8 cells
cynomolgus CCR8 [5] = molecular target: T1, cynomolgus CCR8; assay: FACS on HEK293-cynomolgus CCR8 cells; remark: listed apart in the source
human CCR8 [6] = molecular target: T2, human CCR8; assay: FACS on CHO-K1-human CCR8 cells
human CCR8 [7] = molecular target: T2, human CCR8; assay: FACS on HuT78 cells (endogenous human CCR8)
Description: HuT78 cells expressing endogenous human CCR8 were used for determining binding affinities of selected affinity matured anti-CCR8 antibodies. Briefly, a total of […] cells for each well were seeded in 96-well plates and washed with FACS buffer (DPBS containing […]) for once. […] Cells were incubated with 50 μL of diluted antibodies at 4° C. for 1 hour. After primary antibody incubation, cells were washed for 3 times by FACS buffer. Then, cells were stained by Alexa Fbu647 labeled anti-human IgG secondary antibody (Jackson ImmunoResearch, #109606170) at 1:600 dilution in FACS buffer for 0.5 hour at 4° C. After 3 times washed, flow cytometry (Sartourius, iQue3) was performed to measure the binding affinities of antibodies. […]

human CCR8 [8] = molecular target: T2, human CCR8; assay: FACS on HEK293-human CCR8 cells; remark: listed apart in the source
Description: (§2) Binding affinities of NG site removed antibodies were determined on human CCR8 and cynomolgus CCR8 overexpression cells. Briefly, CFSE labeled HEK293-human CCR8 cells or CFSE labeled HEK293-cynomolgus CCR8 cells were mixed with HEK293 cells. The mixed ratio was 1:1. A total of 5×10⁴ mixed cells for each well were seeded in 96-well plates and washed by FACS buffer (DPBS containing 1% FBS) once. Cells were incubated by serial diluted purified hybridoma antibodies for 1 hour at 4° C. Antibodies were prepared with 3-fold serial dilution ranging from 100 nM to 0.0017 nM or from 25.3165 nM to 0.0004 nM in FACS buffer. […] After primary antibody incubation, cells were washed by FACS buffer for three times. Then, cells were stained with secondary antibody (Alexa Flu647-conj gated rabbit anti-mouse IgG, Jackson ImmunoResearch, #315606046) at 1:600 dilution in FACS buffer, incubated for 0.5 hour at 4° C. […] FlowJo software was used for analysis. Data was plotted as the logarithm of antibody concentration versus mean fluorescence signals. EC₅₀ values were calculated in GraphPad Prism 8 (GraphPad Software) using a log (agonist) vs. response-Variable slope (4 parameters) curve fit.

human CCR8 [9] = molecular target: T2, human CCR8; assay: FACS, competition with AF647-human CCL1 on CHO-K1-human CCR8 cells; remark: listed apart in the source
Description: Blocking curves were generated to rank the blocking activities of PTM sites removed antibodies. Briefly, a total of 5×10⁴ CHO-K1-human CCR8 cells for each well were seeded in 96-well plate. Cells were incubated by series diluted purified hybridoma antibodies and 4 nM AF647 labeled human CCL1 (Almac, #CAF-07) for 1 hour at 4° C. Antibodies were prepared with 3-fold serial dilution ranging from 100 nM to 0.0051 nM in FACS buffer. Then, cells were washed by FACS buffer for three times after incubation. […] FlowJo software was used for analysis. Data was plotted as the logarithm of antibody concentration versus mean fluorescence signals. IC₅₀ values were determined in GraphPad Prism 8 (GraphPad Software) using a log(agonist) vs. response-Variable slope (4 parameters) curve fit.

cynomolgus CCR8 [10] = molecular target: T1, cynomolgus CCR8; assay: FACS on HEK293-cynomolgus CCR8 cells; remark: listed apart in the source
Description: as §2

T1 sequence (G7NYJ2 entry or part of it): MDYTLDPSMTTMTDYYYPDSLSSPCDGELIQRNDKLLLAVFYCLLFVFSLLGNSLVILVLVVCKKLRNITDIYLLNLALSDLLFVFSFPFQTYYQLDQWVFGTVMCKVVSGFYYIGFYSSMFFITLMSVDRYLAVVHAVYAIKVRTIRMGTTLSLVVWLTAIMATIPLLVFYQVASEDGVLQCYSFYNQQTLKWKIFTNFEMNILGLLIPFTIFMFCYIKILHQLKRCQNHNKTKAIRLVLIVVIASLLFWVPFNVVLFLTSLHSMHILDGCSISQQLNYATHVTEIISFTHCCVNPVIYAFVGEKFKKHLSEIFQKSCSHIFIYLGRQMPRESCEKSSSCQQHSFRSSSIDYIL
T2 sequence (P51685 whole entry): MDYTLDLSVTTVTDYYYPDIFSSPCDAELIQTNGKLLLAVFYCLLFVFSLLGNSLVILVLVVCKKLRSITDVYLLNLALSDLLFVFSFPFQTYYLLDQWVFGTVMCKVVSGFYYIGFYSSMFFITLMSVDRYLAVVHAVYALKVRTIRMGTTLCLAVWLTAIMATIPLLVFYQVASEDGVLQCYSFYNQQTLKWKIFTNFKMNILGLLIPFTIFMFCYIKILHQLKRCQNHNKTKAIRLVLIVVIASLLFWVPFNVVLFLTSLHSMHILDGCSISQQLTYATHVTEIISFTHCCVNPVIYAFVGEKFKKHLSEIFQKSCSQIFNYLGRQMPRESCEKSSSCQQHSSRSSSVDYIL

Binder | EC50 (human CCR8 [8]) [nM] | Max MFI (human CCR8 [8]) [MFI] | IC50 (human CCR8 [9]) [nM] | Max Inhibition (%) (human CCR8 [9]) | EC50 (cynomolgus CCR8 [10]) [nM] | Max MFI (cynomolgus CCR8 [10]) [MFI] | other results
Hu149-1 (antibody, V domains shown, humanized IgG, detected with anti-human IgG) VH: EVQLVESGGGLVQPGGSLKLSCAASGFTFNTYAMNWVRQASGKGLEWVGRIRSKSNFYATYYAASVKGRFTISRDDSKNTAYLQMNSLKTEDTAVYYCVRGRDYGSSYAMDYWGQGTLVTVSS VL: DIVMTQSPLSLPVTPGEPASISCRSSKSLLHSNANTYLYWFLQKPGQSPQLLIYRMSNLASGVPDRFSGSGSGTDFTLKISRVEAEDVGVYYCMQHLEYPLTFGGGTKVELK | – | – | – | – | – | – | EC50 (cynomolgus CCR8 [1]): 0.578 nM; Max MFI (cynomolgus CCR8 [1]): 20900 MFI; EC50 (human CCR8 [2]): 0.534 nM; Max MFI (human CCR8 [2]): 7610 MFI; IC50 (human CCR8 [3]): 0.936 nM; Max Inhibition (%) (human CCR8 [3]): 99.2%
Hu149-24 (antibody, human IgG1, V domains shown, human IgG1) VH: EVQLVESGGGLVQPGGSLKLSCAASGFTFNTYAMNWVRQAPGKGLEWVGRIRSKSNFYATAYAASVKGRFTISRDDSKNTAYLQMNSLKTEDTAVYYCTRGKEYGSSYAMDYWGQGTLVTVSS VL: DIVMTQSPLSLPVTPGEPASISCRSSKSLLHSNANTYLYWFLQKPGQSPQLLIYRMSNLASGVPDRFSGSGSGTDFTLKISRVEAEDVGVYYCMQHLKYPLTFGGGTKVELK | – | – | – | – | – | – | IC50 (human CCR8 [4]): 0.172 nM; Max Inhibition (%) (human CCR8 [4]): 106%; EC50 (cynomolgus CCR8 [5]): 0.161 nM; Max MFI (cynomolgus CCR8 [5]): 3.9e+06 MFI; EC50 (human CCR8 [6]): 0.166 nM; Max MFI (human CCR8 [6]): 844000 MFI; Max MFI (human CCR8 [7]): 198000 MFI
Hu149-2 (antibody, V domains shown, humanized IgG) VH: EVQLVESGGGLVQPGGSLKLSCAASGFTFNTYAMHWVRQASGKGLEWVGRIRSKSNFYATYYAASVKGRFTISRDDSKNTAYLQMNSLKTEDTAVYYCVRGRDYGSSYAMDYWGQGTLVTVSS VL: DIVMTQSPLSLPVTPGEPASISCRSSKSLLHSNANTYLYWFLQKPGQSPQLLIYRMSNLASGVPDRFSGSGSGTDFTLKISRVEAEDVGVYYCMQHLEYPLTFGGGTKVELK | – | – | – | – | – | – | EC50 (cynomolgus CCR8 [1]): 146 nM; Max MFI (cynomolgus CCR8 [1]): 1550 MFI; EC50 (human CCR8 [2]): 3.48 nM; Max MFI (human CCR8 [2]): 1120 MFI; IC50 (human CCR8 [3]): 12.5 nM; Max Inhibition (%) (human CCR8 [3]): 39.5%
149F2C10_G29A (antibody, V domains shown, NG site removed variant of 149F2C10) VH: EVQLVESGGGLVQPKGSLKLSCAASGFTFNTYAMNWVRQAPGKGLEWVARIRSKSNFYATYYADSVKDRFTISRDDSQDMLYLQMNILKTEDTAIYYCVRGRDYGSSYAMDYWGQGTSVTVSS VL: DIVMTQAAPSVPVTPGESVSISCRSSKSLLHSNANTYLYWFLQRPGQSPQLLIYRMSNLASGVPDRFSGSGSGTAFTLRISRVEAEDVGVYYCMQHLEYPLTFGAGTKLELK | 0.129 | 2040 | 0.725 | 77.5 | 0.173 | 4720 | –
149F2C10-CHO (antibody, V domains shown, The suffix -CHO is not explained) VH: EVQLVESGGGLVQPKGSLKLSCAASGFTFNTYAMNWVRQAPGKGLEWVARIRSKSNFYATYYADSVKDRFTISRDDSQDMLYLQMNILKTEDTAIYYCVRGRDYGSSYAMDYWGQGTSVTVSS VL: DIVMTQAAPSVPVTPGESVSISCRSSKSLLHSNGNTYLYWFLQRPGQSPQLLIYRMSNLASGVPDRFSGSGSGTAFTLRISRVEAEDVGVYYCMQHLEYPLTFGAGTKLELK | 0.142 | 1740 | 0.934 | 80.1 | 0.131 | 3310 | –
149F2C10_N28I (antibody, V domains shown, NG site removed variant of 149F2C10) VH: EVQLVESGGGLVQPKGSLKLSCAASGFTFNTYAMNWVRQAPGKGLEWVARIRSKSNFYATYYADSVKDRFTISRDDSQDMLYLQMNILKTEDTAIYYCVRGRDYGSSYAMDYWGQGTSVTVSS VL: DIVMTQAAPSVPVTPGESVSISCRSSKSLLHSIGNTYLYWFLQRPGQSPQLLIYRMSNLASGVPDRFSGSGSGTAFTLRISRVEAEDVGVYYCMQHLEYPLTFGAGTKLELK | 0.244 | 1650 | 2.25 | 65.3 | 0.314 | 1890 | –
149F2C10_G29I (antibody, V domains shown, NG site removed variant of 149F2C10) VH: EVQLVESGGGLVQPKGSLKLSCAASGFTFNTYAMNWVRQAPGKGLEWVARIRSKSNFYATYYADSVKDRFTISRDDSQDMLYLQMNILKTEDTAIYYCVRGRDYGSSYAMDYWGQGTSVTVSS VL: DIVMTQAAPSVPVTPGESVSISCRSSKSLLHSNINTYLYWFLQRPGQSPQLLIYRMSNLASGVPDRFSGSGSGTAFTLRISRVEAEDVGVYYCMQHLEYPLTFGAGTKLELK | 0.146 | 2060 | 1.09 | 70.7 | 0.19 | 4640 | –
149F2C10_G29V (antibody, V domains shown, NG site removed variant of 149F2C10) VH: EVQLVESGGGLVQPKGSLKLSCAASGFTFNTYAMNWVRQAPGKGLEWVARIRSKSNFYATYYADSVKDRFTISRDDSQDMLYLQMNILKTEDTAIYYCVRGRDYGSSYAMDYWGQGTSVTVSS VL: DIVMTQAAPSVPVTPGESVSISCRSSKSLLHSNVNTYLYWFLQRPGQSPQLLIYRMSNLASGVPDRFSGSGSGTAFTLRISRVEAEDVGVYYCMQHLEYPLTFGAGTKLELK | 0.194 | 1900 | 1.04 | 72 | 0.211 | 4680 | –
149F2C10_N28S (antibody, V domains shown, NG site removed variant of 149F2C10) VH: EVQLVESGGGLVQPKGSLKLSCAASGFTFNTYAMNWVRQAPGKGLEWVARIRSKSNFYATYYADSVKDRFTISRDDSQDMLYLQMNILKTEDTAIYYCVRGRDYGSSYAMDYWGQGTSVTVSS VL: DIVMTQAAPSVPVTPGESVSISCRSSKSLLHSSGNTYLYWFLQRPGQSPQLLIYRMSNLASGVPDRFSGSGSGTAFTLRISRVEAEDVGVYYCMQHLEYPLTFGAGTKLELK | 0.21 | 1420 | 15 | 44.9 | 0.333 | 2020 | –
149F2C10_N28Q (antibody, V domains shown, NG site removed variant of 149F2C10; detected with anti-mouse IgG) VH: EVQLVESGGGLVQPKGSLKLSCAASGFTFNTYAMNWVRQAPGKGLEWVARIRSKSNFYATYYADSVKDRFTISRDDSQDMLYLQMNILKTEDTAIYYCVRGRDYGSSYAMDYWGQGTSVTVSS VL: DIVMTQAAPSVPVTPGESVSISCRSSKSLLHSQGNTYLYWFLQRPGQSPQLLIYRMSNLASGVPDRFSGSGSGTAFTLRISRVEAEDVGVYYCMQHLEYPLTFGAGTKLELK | 0.161 | 1640 | 3.07 | 55.7 | 0.209 | 2450 | –
